This is an account of results in publication doi:10.1101/2024.07.08.601072.

The target in this assay is H2A-H2B dimers (yeast) (yeast) (UniProt P04911). In words: native gel or EMSA. For orientation: Mobility shift assays separate free from complexed probe on a gel.

“Purified Tom1p (Tom1p-Protein A after Protein A removal) (from UniProt Q03280 1-3268) (enzyme)” displayed a Kd of 160 to 330 nM.

As a reminder, the Kd is the concentration at which binding is half-saturated. Lower therefore signals tighter binding.
